Substrate: N[C@@H](CC(=O)O)C(=O)O
Assay: purified protein
Settings: 300 mM Na+ outside, pH 7, 10 mM potassium phosphate, valinomycin, 300 mM KCl in lumen, mixed membrane orientation, no sybody, labelled compound

B1: GltTk (Thermococcus kodakarensis KOD1) (protein)
chain: MGKSLLRRYLDYPVLWKILWGLVLGAVFGLIAGHFGYAGAVKTYIKPFGDLFVRLLKMLVMPIVLASLVVGAASISPARLGRVGVKIVVYYLATSAMAVFFGLIVGRLFNVGANVNLGSGTGKAIEAQPPSLVQTLLNIVPTNPFASLAKGEVLPVIFFAIILGIAITYLMNRNEERVRKSAETLLRVFDGLAEAMYLIVGGVMQYAPIGVFALIAYVMAEQGVRVVGPLAKVVGAVYTGLFLQIVITYFILLKVFGIDPIKFIRKAKDAMITAFVTRSSSGTLPVTMRVAEEEMGVDKGIFSFTLPLGATINMDGTALYQGVTVLFVANAIGHPLTLGQQLVVVLTAVLASIGTAGVPGAGAIMLAMVLQSVGLDLTPGSPVALAYAMILGIDAILDMGRTMVNVTGDLAGTVIVAKTEKELDESKWIS
Km: 0.70 ± 0.22 µM | kcat: 0.895 s⁻¹
